Experiment [1] has as its target PTP-CIF3 (Trypanosoma brucei). In words: co-IP; PTP-tagged protein precipitated from T. brucei lysate with IgG-Sepharose beads, 30 min at 4°C, IP buffer, five washes; 3HA-tagged partner detected by anti-HA immunoblot; complementation lines induced with tetracycline.
Experiment [2] has as its target CIF1 (endogenous) (Trypanosoma brucei (endogenous in T. brucei cells)). The experiment is described as follows: co-IP; endogenous CIF1 or TbPLK precipitated from T. brucei lysate with anti-CIF1 or anti-TbPLK antibody and protein A-Sepharose beads, 30 min at 4°C, IP buffer; 3HA-tagged CIF3* and mutants detected by anti-HA immunoblot; band intensity by ImageJ, normalised to CIF1 and compared with the input.

For the substance “CIF1-3HA (ectopic, full-length CIF1) (natural protein)”, the percent of the input protein immunoprecipitated in experiment [1] turned out to be 50%.

Substance CIF1-ΔIDR1-3HA (domain or fragment) came in with a percent of the input protein immunoprecipitated in experiment [1] of 24%. On the same count and under the same terms, the result for CIF1-ΔIDR2-3HA (natural protein) reads 72%. Turning to “CIF3*-3HA (full-length recoded, RNAi-resistant CIF3) (natural protein)”, the percent of the input protein immunoprecipitated in experiment [2] came out at 21%. Still for that read-out and setting: in the case of CIF3*-ΔCC1-3HA (domain or fragment) it was 16%; in that of CIF3*-ΔCC2-3HA (natural protein), 31%; in that of CIF3*-ΔCC3-3HA (natural protein), 3%.

These data come from paper PMC9044925.
